Patent publication US11278600B2, “Human alpha-galactosidase variants” (Codexis, Inc., priority 2014, dated 2022)

Legend:
Format in all cases: biochemical
[1] = HTP-analysis of yeast culture supernatants, no challenge (MUGal hydrolysis); details: activity of the variant/activity of Rd3BB (SEQ ID NO: 13), yeast culture supernatant
How it was run: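 GLA variants were expressed in INVSc1 yeast grown in SD-Ura broth with glucose at 30° C., and culture supernatants were collected after 66-84 h. Supernatant was mixed with McIlvaine buffer pH 4.8 and MUGal (2 mM stock) in 50 mM citrate, 200 mM KCl, pH 4.6, incubated at 37° C. for 30-180 minutes, then quenched with sodium carbonate.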

[2] = HTP-analysis of supernatants pretreated with acid (MUGal hydrolysis); details: challenge at pH 4.0; activity of the variant/activity of Rd3BB (SEQ ID NO: 13); yeast culture supernatant
How it was run: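 GLA variants were secreted from INVSc1 yeast grown 66-84 h at 30° C. in SD-Ura with 2% glucose; supernatants were mixed with McIlvaine buffer pH 3.3-4.3 and held at 37° C. for 1-3 h. Residual activity on MUGal at pH 4.8 was then measured by fluorescence.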

[3] = HTP-analysis of supernatants pretreated with base (MUGal hydrolysis); details: challenge at pH 8.2; activity of the variant/activity of Rd3BB (SEQ ID NO: 13); yeast culture supernatant
How it was run: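 Supernatants from INVSc1 yeast expressing GLA variants (SD-Ura, 66-84 h, 30° C) were mixed with McIlvaine buffer pH 7.0-8.2 or 200 mM sodium bicarbonate pH 9.1-9.7 and held 1-18 h at 37° C. Residual activity was then measured on MUGal at pH 4.8/4.3, 37° C, 30-180 min, by fluorescence (Ex 355/Em 448 nm).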

[4] = HTP-analysis of supernatants pretreated with bovine serum (MUGal hydrolysis); details: activity of the variant/activity of Rd3BB (SEQ ID NO: 13), yeast culture supernatant
How it was run: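 Yeast INVSc1 culture supernatants containing secreted GLA variants were mixed with bovine serum (20:80) and held 1 h at 37° C. Serum-treated samples then reacted with MUGal (4 mM stock) in citrate/McIlvaine buffer (pH 4.3/4.8) for 180 min at 37° C., were quenched with sodium carbonate, and read by fluorescence (Ex 355, Em 448 nm).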

| Molecule | Relative Activity of GLA Variants After No Challenge (NC) [1] | Relative Activity of GLA Variants After Challenge at pH 4.0 [2] | Relative Activity of GLA Variants After Challenge at pH 8.2 [3] | Relative Activity of GLA Variants After Challenge with Serum [4] |
| --- | --- | --- | --- | --- |
| 303 (protein, Synthetic Polypeptide sequence of Variant No. 303 of mature Human GLA) LDNGLARTPTMGWLHWERFMCNLDCQEEPDSCISEKLFMEMAELMVSEGWKDAGYEYLCIDDCWMAPQRDSEGRLQADPQRFPHGIRQLANYVHSKGLKLGIYADVGNKTCAGFPGSFGYYDIDAQTFADWGVDLLKFDGCYCDSLENLADGYKHMSLALNRTGRSIVYSCEWPLYMWPFQKPNYTEIRQYCNHWRNFADIDDSWASIKSILDWTSFNQERIVDVAGPGGWNDPDMLVIGNFGLSWDQQVTQMALWAIMAAPLFMSNDLRHISPQAKALLQDKDVIAINQDPLGKQGYQLRQGDNFEVWERPLSGLAWAVAIINRQEIGGPRSYTIEVASLGDGVACNPACFITQLLPVKRKLGLYNWTSRLKSHVNPTGTVLLQLENTMQMSLKDLL | ++ (++ = >1.5 to 2.5 relative activity over Rd3BB (SEQ ID NO: 13)) | ++ (++ = >1.5 to 2.5 relative activity over Rd3BB (SEQ ID NO: 13)) | ++ (++ = >1.5 to 2.5 relative activity over Rd3BB (SEQ ID NO: 13)) | + (+ = 0.5 to 1.5 relative activity over Rd3BB (SEQ ID NO: 13)) |
| 308 (protein, Synthetic Polypeptide sequence of Variant No. 308 of mature Human GLA) LDNGLARTPTMGWLHWERFMCNLDCQEEPDSCISEKLFMEMAELMVSEGWKDAGYEYLCIDDCWMAPQRDSEGRLQADPQRFPHGIRQLANYVHSIGLKLGIYADVGNKTCAGFPGSFGYYDIDAQTFADWGVDLLKFDGCYCDSLENLADGYKHMSLALNRTGRSIVYSCEWPLYMWPFQKPNYTEIRQYCNHWRNFADIDDSWASIKSILDWTSRNQERIVDVAGPGGWNDPDMLVIGNFGLSWNQQVTQMALWAIMAAPLFMSNDLRHISPQAKALLQDKDVIAINQDPLGKQGYQLRQGDNFEVWERPLSGLAWAVAIINRQEIGGPRSYTIAVASLGKGVACNPACFITQLLPVKRKLGFYNWSSRLKSHINPTGTVLLQLENTMQMSLKDLL | − (− = <0.5 relative activity to Rd3BB (SEQ ID NO: 13)) | − (− = <0.5 relative activity to Rd3BB (SEQ ID NO: 13)) | − (− = <0.5 relative activity to Rd3BB (SEQ ID NO: 13)) | + (+ = 0.5 to 1.5 relative activity over Rd3BB (SEQ ID NO: 13)) |
| 309 (protein, Synthetic Polypeptide sequence of Variant No. 309 of mature Human GLA) LDNGLARTPTMGWLHWERFMCNLDCQEEPDSCISEKLFMEMAELMVSEGWKDAGYEYLCIDDCWMAPQRDSEGRLQADPQRFPHGIRQLANYVHSIGLKLGIYADVGNKTCAGFPGSFGYYDIDAQTFADWGVDLLKFDGCYCDSLENLADGYKHMSLALNRTGRSIVYSCEWPLYMWPFQKPNYTEIRQYCNHWRNFADIDDSWASIKSILDWTSRNQERIVDVAGPGGWNDPDMLVIGNFGLSWDQQVTQMALWAIMAAPLFMSNDLRHISPQAKALLQDKDVIAINQDPLGKQGYQLRKGDNFEVWERPLSGLAWAVAIINRQEIGGPRSYTIPVASLGGGVACNPGCFITQLLPVKRKLGFYNWTSRLKSHINPTGTVLLQLENTMQMSLKDLL | + (+ = 0.5 to 1.5 relative activity over Rd3BB (SEQ ID NO: 13)) | ++ (++ = >1.5 to 2.5 relative activity over Rd3BB (SEQ ID NO: 13)) | +++ (+++ = >2.5 relative activity over Rd3BB (SEQ ID NO: 13)) | ++ (++ = >1.5 to 2.5 relative activity over Rd3BB (SEQ ID NO: 13)) |
| 305 (protein, Synthetic Polypeptide sequence of Variant No. 305 of mature Human GLA) LDNGLARTPTMGWLHWERFMCNLDCQEEPDSCISEKLFMEMAELMVSEGWKDAGYEYLCIDDCWMAPQRDSEGRLQADPQRFPHGIRQLANYVHSKGLKLGIYADVGNKTCAGFPGSFGYYDIDAQTFADWGVDLLKFDGCYCDSLENLADGYKHMSLALNRTGRSIVYSCEWPLYMWPFQKPNYTEIRQYCNHWRNFADIDDSWASIKSILDWTSFNQERIVDVAGPGGWNDPDMLVIGNFGLSWNQQVTQMALWAIMAAPLFMSNDLRHISPQAKALLQDKDVIAINQDPLGKQGYQLRKGDNFEVWERPLSGDAWAVAIINRQEIGGPRSYTIPVASLGKGVACNPACFITQLLPVKRKLGFYNWSSRLKSHINPTGTVLLQLENTMQMSLKDLL | + (+ = 0.5 to 1.5 relative activity over Rd3BB (SEQ ID NO: 13)) | + (+ = 0.5 to 1.5 relative activity over Rd3BB (SEQ ID NO: 13)) | + (+ = 0.5 to 1.5 relative activity over Rd3BB (SEQ ID NO: 13)) | ++ (++ = >1.5 to 2.5 relative activity over Rd3BB (SEQ ID NO: 13)) |
| 306 (protein, Synthetic Polypeptide sequence of Variant No. 306 of mature Human GLA) LDNGLARTPTMGWLHWERFMCNLDCQEEPDSCISEKLFMEMAELMVSEGWKDAGYEYLCIDDCWMAPQRDSEGRLQADPQRFPHGIRQLANYVHSKGLKLGIYADVGNKTCAGFPGSFGYYDIDAQTFADWGVDLLKFDGCYCDSLENLADGYKHMSLALNRTGRSIVYSCEWPLYMWPFQKPNYTEIRQYCNHWRNFADIDDSWASIKSILDWTSFNQEKIVDVAGPGGWNDPDMLVIGNFGLSWDQQVTQMALWAIMAAPLFMSNDLRHISPQAKALLQDKDVIAINQDPLGKQGYQLRKGDNFEVWERPLSGLAWAVAIINRQEIGGPRSYTIAVASLGKGVACNPACFITQLLPVKRKLGFYNWTSRLKSHINPTGTVLLQLENTMQMSLKDLL | + (+ = 0.5 to 1.5 relative activity over Rd3BB (SEQ ID NO: 13)) | ++ (++ = >1.5 to 2.5 relative activity over Rd3BB (SEQ ID NO: 13)) | ++ (++ = >1.5 to 2.5 relative activity over Rd3BB (SEQ ID NO: 13)) | ++ (++ = >1.5 to 2.5 relative activity over Rd3BB (SEQ ID NO: 13)) |
| 307 (protein, Synthetic Polypeptide sequence of Variant No. 307 of mature Human GLA) LDNGLARTPTMGWLHWERFMCNLDCQEEPDSCISEKLFMEMAELMVSEGWKDAGYEYLCIDDCWMAPQRDSEGRLQADPQRFPHGIRQLANYVHSKGLKLGIYADVGNKTCAGFPGSFGYYDIDAQTFADWGVDLLKFDGCYCDSLENLADGYKHMSLALNRTGRSIVYSCEWPLYMWPFQKPNYTEIRQYCNHWRNFADIDDSWASIKSILDWTSFNQEKIVDVAGPGGWNDPDMLVIGNFGLSWNQQVTQMALWAIMAAPLFMSNDLRHISPQAKALLQDKDVIAINQDPLGKQGYQLRKGDNFEVWERPLSGLAWAVAIINRQEIGGPRSYTIAVASLGGGVACNPACFITQLLPVKRKLGFYNWSSRLKSHVNPTGTVLLQLENTMQMSLKDLL | + (+ = 0.5 to 1.5 relative activity over Rd3BB (SEQ ID NO: 13)) | + (+ = 0.5 to 1.5 relative activity over Rd3BB (SEQ ID NO: 13)) | + (+ = 0.5 to 1.5 relative activity over Rd3BB (SEQ ID NO: 13)) | + (+ = 0.5 to 1.5 relative activity over Rd3BB (SEQ ID NO: 13)) |
| 304 (protein, Synthetic Polypeptide sequence of Variant No. 304 of mature Human GLA) LDNGLARTPTMGWLHWERFMCNLDCQEEPDSCISEKLFMEMAELMVSEGWKDAGYEYLCIDDCWMAPQRDSEGRLQADPQRFPHGIRQLANYVHSKGLKLGIYADVGNKTCAGFPGSFGYYDIDAQTFADWGVDLLKFDGCYCDSLENLADGYKHMSLALNRTGRSIVYSCEWPLYMWPFQKPNYTEIRQYCNHWRNFADIDDSWASIKSILDWTSFNQERIVDVAGPGGWNDPDMLVIGNFGLSWNQQVTQMALWAIMAAPLFMSNDLRHISPQAKALLQDKDVIAINQDPLGKQGYQLRKGDNFEVWERPLSGDAWAVAIINRQEIGGPRSYTIPVASLGKGVACNPGCFITQLLPVKRQLGFYNWTSRLKSHINPTGTVLLQLENTMQMSLKDLL | ++ (++ = >1.5 to 2.5 relative activity over Rd3BB (SEQ ID NO: 13)) | ++ (++ = >1.5 to 2.5 relative activity over Rd3BB (SEQ ID NO: 13)) | ++ (++ = >1.5 to 2.5 relative activity over Rd3BB (SEQ ID NO: 13)) | ++ (++ = >1.5 to 2.5 relative activity over Rd3BB (SEQ ID NO: 13)) |
